B1: LINE1-full (parent)
chain: UACGUAGGUGGUUUUCCCCUGAUAGUGCUAAGGGGGCCUGGAAGUUUGGACUGGGCAGAGCUCAACACAGCGUGGCAAAGUGGCUGUGGCUAGACUGCCUCUCUGGAUUCCUCGUCACUCAGCAGGGCAUCUCUGAGAGAAAUGCC

Variants of: B1
Assay: self-cleavage, relative activity (ratio to wild type); higher = more cleavage; in vitro, sequencing; the parent is a self-cleaving ribozyme

Row | Variant | self-cleavage
1 | UACGUAGGUGGUUUUCCCCUGAUAGUGCUAAGGGGGCCUGGAAGCUUGGACUGGGCAGAGCUCAACACAGCGUGGCAAAGUGGCUGUGGCUAGACUGCCUCUCUGGAUUCCUCGUCACUCAGCAGGGCAUCUCUGAUAGAAAUGCC [U45C G137U] | 1.23
2 | UACGUAGGUGGUUUUCCCCUGAUAGUGCUAAGGGGGCCUGGAAGCUUGGACUGGGCAGAGCUCAACACAGCGUGGCAAAGUGGCUGUGGCUAGACUGCCUCUCUGGAUUCCUAGUCACUCAGCAGGGCAUCUCUGAGAGAAAUGCC [U45C C113A] | 2.37
3 | UACGUAGGUGGUUUUCCCCUGAUAGUGCUAAGGGGGCCUGGAAGCUUGGACUGGGCAGAGCUCAACACAGCGUGGCAAAGUGGCUGUGGCUAGACUGCCUCUCUGGAUUCCUUGUCACUCAGCAGGGCAUCUCUGAGAGAAAUGCC [U45C C113U] | 1.15
4 | UACGUAGGUGGUUUUCCCCUGAUAGUGCUAAGGGGGCCUGGAAGCUUGGACUGGGCAGAGCUCAACACAGCGUGGCAAAGUGGCUGUGGCUAGACUGCCUCUCUGGAUUCCUCGUCACUCAGCACGGCAUCUCUGAGAGAAAUGCC [U45C G125C] | 1.13
5 | UACGUAGGUGGUUUUCCCCUGAUAGUGCUAAGGGGGCCUGGAAGCUUGGACUGGGCAGAGCUCAACACAGCGUGGCAAAGUGGCUGUGGCUAGACUGCCUCUCUGGAUUCCUCAUCACUCAGCAGGGCAUCUCUGAGAGAAAUGCC [U45C G114A] | 1.48
6 | UACGUAGGUGGUUUUCCCCUGAUAGUGCUAAGGGGGCCUGGAAGCUUGGACUGGGCAGAGCUCAACACAGCGUGGCAAAGUGGCUGUGGCUAGACUGCCUCUCUGGAUUCCUCGUCACUCAGCAGGGCAUCUCUGAGAGAAAUUCC [U45C G144U] | 1.42
7 | UACGUAGGUGGUUUUCCCCUGAUAGUGCUAAGGGGGCCUGGAAGCUUGAACUGGGCAGAGCUCAACACAGCGUGGCAAAGUGGCUGUGGCUAGACUGCCUCUCUGGAUUCCUCGUCACUCAGCAGGGCAUCUCUGAGAGAAAUGCC [U45C G49A] | 0.77
8 | UACGUAGGUGGUUUUCCCCUGAUAGUGCUAAGGGGGCCUGGAAGCUUGGACAGGGCAGAGCUCAACACAGCGUGGCAAAGUGGCUGUGGCUAGACUGCCUCUCUGGAUUCCUCGUCACUCAGCAGGGCAUCUCUGAGAGAAAUGCC [U45C U52A] | 1.33
9 | UACGUAGGUGGUUUUCCCCUGAUAGUGCUAAGGGGGCCUGGAAGCUUGGACUGGGCAGAGCACAACACAGCGUGGCAAAGUGGCUGUGGCUAGACUGCCUCUCUGGAUUCCUCGUCACUCAGCAGGGCAUCUCUGAGAGAAAUGCC [U45C U62A] | 0.04
10 | UACGUAGGUGGUUUUCCCCUGAUAGUGCUAAGGGGGCCUGGAAGCUUGGACUGGGCAGAGCGCAACACAGCGUGGCAAAGUGGCUGUGGCUAGACUGCCUCUCUGGAUUCCUCGUCACUCAGCAGGGCAUCUCUGAGAGAAAUGCC [U45C U62G] | 0
11 | UACGUAGGUGGUUUUCCCCUGAUAGUGCUAAGGGGGCCUGGAAGCUUGGACUGGGCAGAGCUCAACACAGCGUGGCAAAGUGGCUGUGGCUAGACUGCCUCUCUGGAUUCCUCGUCACUCAGCAGGGCAUCUCUAAGAGAAAUGCC [U45C G135A] | 1.28
12 | UACGUAGGUGGUUUUCCCCUGAUAGUGCUAAGGGGGCCUGGAAGCUUGGACUGGGCAGAGCUCAACACAUCGUGGCAAAGUGGCUGUGGCUAGACUGCCUCUCUGGAUUCCUCGUCACUCAGCAGGGCAUCUCUGAGAGAAAUGCC [U45C G70U] | 0.06
13 | UACGUAGGUGGUUUUCCCCUGAUAGUGCUAAGGGGGCCUGGAAGCUUGGACUGGGCAGAGCUCAACACAGCGUGGCAAAGUGGCUGUGGCUAGACUGCCUCUCUGGAUUCCUCGUCACUCAGCAGGGCAUCUCUGAGAGAAAUGUC [U45C C145U] | 1.5
14 | UACGUAGGUGGUUUUCCCCUGAUAGUGCUAAGGGGGCCUGGAAGCUUGGACUGGGCAGAGCUCAACACAGCGUGGCAAAGAGGCUGUGGCUAGACUGCCUCUCUGGAUUCCUCGUCACUCAGCAGGGCAUCUCUGAGAGAAAUGCC [U45C U81A] | 2.03
15 | UACGUAGGUGGUUUUCCCCUGAUAGUGCUAAGGGGGCCUGGAAGCUUGGACUGGGCAGAGCUCAACACAGCGUGGCAAAGUGGCUGUGGCUAGACUGCCUCUCUGGAUUCCUCGUCACUUAGCAGGGCAUCUCUGAGAGAAAUGCC [U45C C120U] | 1.45
16 | UACGUAGGUGGUUUUCCCCUGAUAGUGCUAAGGGGGCCUGGAAGCUUGGACUGGGCAGAGCUCAACACAGCGUGGCAAAGUGGCUGUGGCUAGACUGCCUCUCUGGAUUCCUCGUCACUCAGCAGGGCAUUUCUGAGAGAAAUGCC [U45C C131U] | 0.93
17 | UACGUAGGUGGUUUUCCCCUGAUAGUGCUAAGGGGGCCUGGAAGCUUGGACUGGGCAGAGCUCAACACAGCGUAGCAAAGUGGCUGUGGCUAGACUGCCUCUCUGGAUUCCUCGUCACUCAGCAGGGCAUCUCUGAGAGAAAUGCC [U45C G74A] | 1.25
18 | UACGUAGGUGGUUUUCCCCUGAUAGUGCUAAGGGGGCCUGGAAGCUUGGACUGGGCAGAGCUCAACACAGCGGGGCAAAGUGGCUGUGGCUAGACUGCCUCUCUGGAUUCCUCGUCACUCAGCAGGGCAUCUCUGAGAGAAAUGCC [U45C U73G] | 1.22
19 | UACGUAGGUGGUUUUCCCCUGAUAGUGCUAAGGGGGCCUGGAAGCUUUGACUGGGCAGAGCUCAACACAGCGUGGCAAAGUGGCUGUGGCUAGACUGCCUCUCUGGAUUCCUCGUCACUCAGCAGGGCAUCUCUGAGAGAAAUGCC [U45C G48U] | 0.9
20 | UACGUAGGUGGUUUUCCCCUGAUAGUGCUAAGGGGGCCUGGAAGCUUGGACUGGGCAGAGCUCAACACAGCGUGGCAAAGUGGCUGUGGCUAGACUGCCUCUCUGGAUUCCUCGUCACUCAGCAGGGCAUCUCUGAGAGAAAUGCU [U45C C146U] | 2.99

Row | Variant | self-cleavage
21 | UACGUAGGUGGUUUUCCCCUGAUAGUGCUAAGGGGGCCUGGAAGCUUGGACUGGGCAGAGCUCAACACAGCGUGGCAAAGUGGCUGUGGCUAGACUGCCUCUCUGGAUUCCUCGUCACUCAGCAGGGCAUCUCUGAGAGAAAUGCA [U45C C146A] | 1.56
22 | UACGUAGGUGGUUUUCCCCUGAUAGUGCUAAGGGGGCCUGGAAGCUCGGACUGGGCAGAGCUCAACACAGCGUGGCAAAGUGGCUGUGGCUAGACUGCCUCUCUGGAUUCCUCGUCACUCAGCAGGGCAUCUCUGAGAGAAAUGCC [U45C U47C] | 1.23
23 | UACGUAGGUGGUUUUCCCCUGAUAGUGCUAAGGGGGCCUGGAAGCUGGGACUGGGCAGAGCUCAACACAGCGUGGCAAAGUGGCUGUGGCUAGACUGCCUCUCUGGAUUCCUCGUCACUCAGCAGGGCAUCUCUGAGAGAAAUGCC [U45C U47G] | 1.09
24 | UACGUAGGUGGUUUUCCCCUGAUAGUGCUAAGGGGGCCUGGAAGCUUGGACUGGGCAGAGCUCAACACAGCGUGGCAAAGUGGCCGUGGCUAGACUGCCUCUCUGGAUUCCUCGUCACUCAGCAGGGCAUCUCUGAGAGAAAUGCC [U45C U85C] | 0.17
25 | UACGUAGGUGGUUUUCCCCUGAUAGUGCUAAGGGGGCCUGGAAGCUUGGACUGGACAGAGCUCAACACAGCGUGGCAAAGUGGCUGUGGCUAGACUGCCUCUCUGGAUUCCUCGUCACUCAGCAGGGCAUCUCUGAGAGAAAUGCC [U45C G55A] | 0.27
26 | UACGUAGGUGGUUUUCCCCUGAUAGUGCUAAGGGGGCCUGGAAGCUUGGACUGGCCAGAGCUCAACACAGCGUGGCAAAGUGGCUGUGGCUAGACUGCCUCUCUGGAUUCCUCGUCACUCAGCAGGGCAUCUCUGAGAGAAAUGCC [U45C G55C] | 0.1
27 | UACGUAGGUGGUUUUCCCCUGAUAGUGCUAAGGGGGCCUGGAAGCUUGGACUGGGCAGAGCUCAACACAGCGUGGCAAAGUGGCUGUGGCUAGACUGCCUCUCUGGAUUCUUCGUCACUCAGCAGGGCAUCUCUGAGAGAAAUGCC [U45C C111U] | 1.51
28 | UACGUAGGUGGUUUUCCCCUGAUAGUGCUAAGGGGGCCUGGAAGCUUGGACUGGGCAGAGCUCAACACAGCGUGGCAAAGUGGCUGUGGCUAGACUGCCUCUCUGGAUUCCUCGUCACUCAGCAGGGCAUCUCUGAGACAAAUGCC [U45C G139C] | 1.63
29 | UACGUAGGUGGUUUUCCCCUGAUAGUGCUAAGGGGGCCUGGAAGCUUGGACUGGGCAGAGCUCAACACAGCGUGGCAAAGUGGCUGUGGCUAGACUGCCUCUCUAGAUUCCUCGUCACUCAGCAGGGCAUCUCUGAGAGAAAUGCC [U45C G105A] | 1.34
30 | UACGUAGGUGGUUUUCCCCUGAUAGUGCUAAGGGGGCCUGGAAGCUUGGACUGGGCAGAGCUCAACACAGCGUGGCAAAGUGGCUGUGGCUAAACUGCCUCUCUGGAUUCCUCGUCACUCAGCAGGGCAUCUCUGAGAGAAAUGCC [U45C G93A] | 0.07
31 | UACGUAGGUGGUUUUCCCCUGAUAGUGCUAAGGGGGCCUGGAAGCUUGGACUGGGCAGAGCUCAACACAGCGUGACAAAGUGGCUGUGGCUAGACUGCCUCUCUGGAUUCCUCGUCACUCAGCAGGGCAUCUCUGAGAGAAAUGCC [U45C G75A] | 1.13
32 | UACGUAGGUGGUUUUCCCCUGAUAGUGCUAAGGGGGCCUGGAAGCUUGGACUGGGCAGAGCUCAACACAGCGUGGCAAAGUGGCUGUGGCUAGACUGCCUCUCUGGAUUCCUCGUCACUCAGCAGAGCAUCUCUGAGAGAAAUGCC [U45C G126A] | 1.32
33 | UACGUAGGUGGUUUUCCCCUGAUAGUGCUAAGGGGGCCUGGAAGCUUGGACUGGGCAGAGCUCAACACAGCGUGGCAAAGUGGCUGUGGCUAGACUGCCUCUCUGGAUUCCUCGUCACUCAACAGGGCAUCUCUGAGAGAAAUGCC [U45C G122A] | 0.81
34 | UACGUAGGUGGUUUUCCCCUGAUAGUGCUAAGGGGGCCUGGAAGCUUGGACUGGGCAGAGCUCAACACAGCGUGGCAAAGUGGCUGUGGCUAGACUGCCUCUCUGGAUUCCUCGUUACUCAGCAGGGCAUCUCUGAGAGAAAUGCC [U45C C116U] | 1.36
35 | UACGUAGGUGGUUUUCCCCUGAUAGUGCUAAGGGGGCCUGGAAGCUUGGACUGGGCAGACCUCAACACAGCGUGGCAAAGUGGCUGUGGCUAGACUGCCUCUCUGGAUUCCUCGUCACUCAGCAGGGCAUCUCUGAGAGAAAUGCC [U45C G60C] | 0.03
36 | UACGUAGGUGGUUUUCCCCUGAUAGUGCUAAGGGGGCCUGGAAGCUUGGACUGGGCAGAUCUCAACACAGCGUGGCAAAGUGGCUGUGGCUAGACUGCCUCUCUGGAUUCCUCGUCACUCAGCAGGGCAUCUCUGAGAGAAAUGCC [U45C G60U] | 0.02
37 | UACGUAGGUGGUUUUCCCCUGAUAGUGCUAAGGGGGCCUGGAAGCUUGGACUGGGCAGAGCUCAACACAGCGUGGCAAACUGGCUGUGGCUAGACUGCCUCUCUGGAUUCCUCGUCACUCAGCAGGGCAUCUCUGAGAGAAAUGCC [U45C G80C] | 1.8
38 | UACGUAGGUGGUUUUCCCCUGAUAGUGCUAAGGGGGCCUGGAAGCUUGGACUGGGCAGAGCUCAACACAGCGUGGCAAAGUGGCUGUAGCUAGACUGCCUCUCUGGAUUCCUCGUCACUCAGCAGGGCAUCUCUGAGAGAAAUGCC [U45C G88A] | 0.08
39 | UACGUAGGUGGUUUUCCCCUGAUAGUGCUAAGGGGGCCUGGAAGCUUGGACUGUGCAGAGCUCAACACAGCGUGGCAAAGUGGCUGUGGCUAGACUGCCUCUCUGGAUUCCUCGUCACUCAGCAGGGCAUCUCUGAGAGAAAUGCC [U45C G54U] | 0.11
